Assay results taken from patent publication US20040167074A1, “Therapeutic applications of mFLINT polypeptides” (priority 1998, published 2004).

Experiments:
[1] = target: mrecFas; test: ELISA: 100 ng mrecFas adsorbed, FasL 1 ng, anti-Flag M2 detection
[2] = target: T1, mFLINT (mature human FLINT, non-Flagged, made according to Examples 8 and 9) (human) (UniProt O95407); test: ELISA: 100 ng FLINT adsorbed, FasL 5.0 ng, anti-Flag M2 detection
T1 sequence (chain, glycosylated (p-0200)): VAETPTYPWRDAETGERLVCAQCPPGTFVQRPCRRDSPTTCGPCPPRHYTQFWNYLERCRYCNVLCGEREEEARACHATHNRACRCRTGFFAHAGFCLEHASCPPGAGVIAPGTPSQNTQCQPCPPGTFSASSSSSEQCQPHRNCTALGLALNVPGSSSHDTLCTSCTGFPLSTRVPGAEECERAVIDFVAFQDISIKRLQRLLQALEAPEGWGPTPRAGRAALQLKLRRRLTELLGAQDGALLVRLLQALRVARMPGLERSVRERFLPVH

[3] = target: T1, mFLINT (mature human FLINT, non-Flagged, made according to Examples 8 and 9) (human); test: ELISA: 100 ng FLINT adsorbed, FasL 0.5 ng, anti-Flag M2 detection
[4] = target: mrecFas; test: ELISA: 100 ng mrecFas adsorbed, FasL 500 ng, anti-Flag M2 detection
[5] = target: mrecFas; test: ELISA: 100 ng mrecFas adsorbed, FasL 100 ng, anti-Flag M2 detection
[6] = target: T1, mFLINT (mature human FLINT, non-Flagged, made according to Examples 8 and 9) (human); test: ELISA: 100 ng FLINT adsorbed, FasL 0.1 ng, anti-Flag M2 detection
[7] = target: Fas; test: ELISA: 100 ng Fas adsorbed, FasL 100 ng, anti-Flag M2 detection
[8] = target: T1, mFLINT (mature human FLINT, non-Flagged, made according to Examples 8 and 9) (human); test: ELISA: 100 ng FLINT adsorbed, FasL 50 ng, anti-Flag M2 detection
[9] = target: Fas; test: ELISA: 100 ng Fas adsorbed, FasL 5.0 ng, anti-Flag M2 detection
[10] = target: Fas; test: ELISA: 100 ng Fas adsorbed, FasL 1.0 ng, anti-Flag M2 detection
[11] = target: T1, mFLINT (mature human FLINT, non-Flagged, made according to Examples 8 and 9) (human); test: ELISA: 100 ng FLINT adsorbed, FasL 1.0 ng, anti-Flag M2 detection
[12] = target: Fas; test: ELISA: 100 ng Fas adsorbed, FasL 0.1 ng, anti-Flag M2 detection
[13] = target: T1, mFLINT (mature human FLINT, non-Flagged, made according to Examples 8 and 9) (human); test: ELISA: 100 ng FLINT adsorbed, FasL 100 ng, anti-Flag M2 detection
[14] = target: Fas; test: ELISA: 100 ng Fas adsorbed, FasL 0.5 ng, anti-Flag M2 detection
[15] = target: Fas; test: ELISA: 100 ng Fas adsorbed, FasL 50 ng, anti-Flag M2 detection
[16] = target: mrecFas; test: ELISA: 100 ng mrecFas adsorbed, FasL 50 ng, anti-Flag M2 detection
[17] = target: mrecFas; test: ELISA: 100 ng mrecFas adsorbed, FasL 5 ng, anti-Flag M2 detection
[18] = target: T1, mFLINT (mature human FLINT, non-Flagged, made according to Examples 8 and 9) (human); test: ELISA: 100 ng FLINT adsorbed, FasL 10 ng, anti-Flag M2 detection
[19] = target: Fas; test: ELISA: 100 ng Fas adsorbed, FasL 10 ng, anti-Flag M2 detection
[20] = target: mrecFas; test: ELISA: 100 ng mrecFas adsorbed, FasL 10 ng, anti-Flag M2 detection

Chain of hFasLigand (Flag-tagged) (P48023 103-281 limits assumed): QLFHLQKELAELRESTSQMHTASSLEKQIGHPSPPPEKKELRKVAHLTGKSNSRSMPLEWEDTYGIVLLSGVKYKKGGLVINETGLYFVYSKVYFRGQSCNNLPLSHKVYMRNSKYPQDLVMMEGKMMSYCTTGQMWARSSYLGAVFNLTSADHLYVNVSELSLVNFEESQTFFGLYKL
Chain of Fas (P25445 whole entry): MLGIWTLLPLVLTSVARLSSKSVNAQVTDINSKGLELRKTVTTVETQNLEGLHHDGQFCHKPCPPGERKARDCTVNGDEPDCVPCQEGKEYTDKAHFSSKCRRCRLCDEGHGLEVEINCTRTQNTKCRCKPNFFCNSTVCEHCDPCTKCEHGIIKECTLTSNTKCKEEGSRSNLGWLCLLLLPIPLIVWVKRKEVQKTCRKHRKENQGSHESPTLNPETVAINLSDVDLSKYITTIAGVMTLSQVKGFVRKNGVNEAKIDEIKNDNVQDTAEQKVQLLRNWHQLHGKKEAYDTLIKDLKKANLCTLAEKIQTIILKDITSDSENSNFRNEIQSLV

Substance: hFasLigand (Flag-tagged) (from UniProt P48023)
- OD, 405 nM [1]: 0.1 OD, 405 nM
- FLINT OD [2]: 0.04 OD, 405 nM
- FLINT OD [3]: 0 OD, 405 nM
- OD, 405 nM [4]: 1.6 OD, 405 nM
- OD, 405 nM [5]: 1.2 OD, 405 nM
- FLINT OD [6]: 0 OD, 405 nM
- Fas OD, 405 nM [7]: 0.18 OD, 405 nM
- FLINT OD [8]: 0.28 OD, 405 nM
- Fas OD, 405 nM [9]: 0.01 OD, 405 nM
- Fas OD, 405 nM [10]: 0 OD, 405 nM
- FLINT OD [11]: 0.02 OD, 405 nM
- Fas OD, 405 nM [12]: 0 OD, 405 nM
- FLINT OD [13]: 0.78 OD, 405 nM
- Fas OD, 405 nM [14]: 0 OD, 405 nM
- Fas OD, 405 nM [15]: 0.045 OD, 405 nM
- OD, 405 nM [16]: 0.7 OD, 405 nM
- OD, 405 nM [17]: 0.2 OD, 405 nM
- FLINT OD [18]: 0.12 OD, 405 nM
- Fas OD, 405 nM [19]: 0.03 OD, 405 nM
- OD, 405 nM [20]: 0.3 OD, 405 nM
